2 proteins from patent publication US20090202980 can be followed below.

The target in series [1] is endostatin (precipitated, cross-β structure-containing).
Series [2] deals with T1, fibrin peptide 85 (FP13), human fibrin α-chain fragment α148-160.
T1 chain: KRLEVDIDIKIRS

The target of a further series is T2, fibrin peptide 86 (FP12).
T2 chain: KRLEVDIDIKIR

Series [3] deals with T3, fibrin peptide 87 (FP10), non-amyloid fragment of human fibrin α-chain(148-157).
T3 chain: KRLEVDIDIK

In series [4] the target is T4, human IAPP amyloid core fragment (ΔhIAPP).
T4 chain: SNNFGAILSS

Series [5] concerns the target human amyloid-β peptide Aβ(1-40).
For series [6], the target named is T5, human islet amyloid polypeptide, full length (fl-hIAPP).
T5 chain: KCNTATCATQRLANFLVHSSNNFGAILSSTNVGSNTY

Series [7] has as its target T6, mouse non-amyloidogenic IAPP(20-29) core (ΔmIAPP).
T6 chain: SNNLGPVLPP

The target in series [8] is T7, recombinant human β2-glycoprotein I (expressed in insect cells), P02749.
T7 chain: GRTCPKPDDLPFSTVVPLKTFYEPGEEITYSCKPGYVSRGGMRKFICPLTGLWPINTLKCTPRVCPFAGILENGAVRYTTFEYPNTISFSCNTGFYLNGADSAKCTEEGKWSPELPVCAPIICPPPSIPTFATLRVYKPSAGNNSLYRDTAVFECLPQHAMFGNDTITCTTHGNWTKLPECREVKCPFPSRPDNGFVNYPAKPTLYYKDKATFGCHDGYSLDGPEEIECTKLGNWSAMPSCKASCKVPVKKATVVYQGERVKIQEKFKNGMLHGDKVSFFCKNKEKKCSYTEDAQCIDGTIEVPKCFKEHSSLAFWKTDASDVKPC

Series [9] addresses T8, β2-glycoprotein I purified from fresh human plasma (in solution), P02749.
T8 chain: T7 chain

Series [10] has as its target T9, amyloid fragment of transthyretin (TTR11).
T9 chain: YTIAALLSPYS

For series [11], the target named is T10, laminin α1-chain(2097-2108) amyloid core peptide (LAM12).
T10 chain: AASIKVAVSADR

B1: recombinant tissue-type plasminogen activator (tPA) (protein)
chain: SYQVICRDEKTQMIYQQHQSWLRPVLRSNRVEYCWCNSGRAQCHSVPVKSCSEPRCFNGGTCQQALYFSDFVCQCPEGFAGKCCEIDTRATCYEDQGISYRGTWSTAESGAECTNWNSSALAQKPYSGRRPDAIRLGLGNHNYCRNPDRDSKPWCYVFKAGKYSSEFCSTPACSEGNSDCYFGNGSAYRGTHSLTESGASCLPWNSMILIGKVYTAQNPSAQALGLGKHNYCRNPDGDAKPWCHVLKNRRLTWEYCDVPSCSTCGLRQYSQPQFRIKGGLFADIASHPWQAAIFAKHRRSPGERFLCGGILISSCWILSAAHCFQERFPPHHLTVILGRTYRVVPGEEEQKFEVEKYIVHKEFDDDTYDNDIALLQLKSDSSRCAQESSVVRTVCLPPADLQLPDWTECELSGYGKHEALSPFYSERLKEAHVRLYPSSRCTSQHLLNRTVTDNMLCAGDTRSGGPQANLHDACQGDSGGPLVCLNDGRMTLVGIISWGLGCGQKDVPGVYTKVTNYLDWIRDNMRP
With B1, the “tPA-mediated plasmin formation (plasminogen activation assay)” value is “stimulating activity of cross-β structure-containing endostatin on tPA-mediated plasmin formation” in series [1]; “peptides 85 and 86, both containing a cross-β structure, do stimulate the formation of plasmin by tPA” in [2]; “peptides 85 and 86, both containing a cross-β structure, do stimulate the formation of plasmin by tPA” with fibrin peptide 86 (FP12); “peptide 87, which lacks a cross-β structure, does not” in [3]. Further, the tPA-mediated plasminogen activation result in [4] is “Both full-length (fl-hIAPP) and truncated amyloid core (Δ-hIAPP), but not mouse IAPP (Δ-mIAPP), stimulate tPA-mediated plasminogen activation”; in series [6], “Both full-length (fl-hIAPP) and truncated amyloid core (Δ-hIAPP), but not mouse IAPP (Δ-mIAPP), stimulate tPA-mediated plasminogen activation”; in [7] it was “but not mouse IAPP (Δ-mIAPP)”. Moreover, the “activation of plasminogen by tPA (S-2251 conversion)” value in series [5] was “Aβ potently stimulates the activation of plasminogen by tPA”. Also, the “tPA-mediated conversion of plasminogen to plasmin (S-2251 conversion)” value in series [8] was “Recombinant β2gpi and not β2gpi purified from fresh plasma, stimulates effectively the tPA-mediated conversion of plasminogen to plasmin”; in series [9] it was “Recombinant β2gpi and not β2gpi purified from fresh plasma, stimulates effectively the tPA-mediated conversion of plasminogen to plasmin”.

B2: human factor XII (Hageman factor) (protein)
chain: IPPWEAPKEHKYKAEEHTVVLTVTGEPCHFPFQYHRQLYHKCTHKGRPGPQPWCATTPNFDQDQRWGYCLEPKKVKDHCSKHSPCQKGGTCVNMPSGPHCLCPQHLTGNHCQKEKCFEPQLLRFFHKNEIWYRTEQAAVARCQCKGPDAHCQRLASQACRTNPCLHGGRCLEVEGHRLCHCPVGYTGAFCDVDTKASCYDGRGLSYRGLARTTLSGAPCQPWASEATYRNVTAEQARNWGLGGHAFCRNPDNDIRPWCFVLNRDRLSWEYCDLAQCQTPTQAAPPTPVSPRLHVPLMPAQPAPPKPQPTTRTPPQSQTPGALPAKREQPPSLTRNGPLSCGQRLRKSLSSMTRVVGGLVALRGAHPYIAALYWGHSFCAGSLIAPCWVLTAAHCLQDRPAPEDLTVVLGQERRNHSCEPCQTLAVRSYRLHEAFSPVSYQHDLALLRLQEDADGSCALLSPYVQPVCLPSGAARPSETTLCQVAGWGHQFEGAEEYASFLQEAQVPFLSLERCSAPDVHGSSILPGMLCAGFLEGGTDACQGDSGGPLVCEDQAAERRLTLQGIISWGSGCGDRNKPGVYTDVAYYLAWIREHTVS
Regarding B2, the “auto-activation of factor XII (S-2222 conversion)” value with Aβ(1-40) E22Q is “the potency of the Aβ(1-40) E22Q is somewhat lower”; in the series with FP13 K157G it was “FP13 K157G and Hb-AGE have a potency to induce auto-activation that is similar to the established surface activator DXS500k”. Moreover, the “factor XII activation (Chromozym PK conversion via kallikrein)” value in [10] is “cross-β structure-rich peptides LAM12 and TTR11 stimulate factor XII activation, to a similar extent as kaolin”; in series [2] it was “amyloid-like peptide aggregates of FP13 and Aβ stimulate the activation of factor XII”; in series [3], “non-amyloid controls FP10 and mIAPP do not activate factor XII”; in [5], “amyloid-like peptide aggregates of FP13 and Aβ stimulate the activation of factor XII”; in series [11] it was “cross-β structure-rich peptides LAM12 and TTR11 stimulate factor XII activation, to a similar extent as kaolin”; in series [7], “non-amyloid controls FP10 and mIAPP do not activate factor XII”.
